# B1: CYP2E1 (Sus scrofa) (protein)
# chain: MTALGITVALLVWLVTLLLISIWKHIHSSWKLPPGPFPLPIVGNIFQLDLKNIPKSFTMLAERYGPVFTVYLGSRRIVVLHGYKAVKEVLLHYKNEFSGRGEIPTFQVHKDKGVIFNNGPTWRDTRRFSLTTLRDFGMGKQGNEQRIQREAHFLLEALRKTHGQPFDPTFLIGCAPCNVISDILFRQHFDYNDKTCLRLMSMFNENFYLLSTGWIQLYNNFSGYLRYLPGSHRKLMKNISEIKDYALERVKDHRDSLEPSCPRDFTDTLLMEMEKEKYSAEPIYTLDNIAVTVADMFFAGTETTSTTLRYGLLILMKYPEVEEKLHEEIDRVIGPNRIPAIKDRLVMPYLDAVVHEIQRFIDLIPSNLPHEATRDTDFRDYIIPKGTVVIPTLDSVLYDSQEFPEPEKFKPEHFLNENGKFKYSDHFKAFSAGKRVCVGEGLARMELFLFMAAILQHFNLKSLVDPKDIDLSPIAIGFAKIPPHYKLCVIPRSQV
# Substrate: O=[N+]([O-])c1ccc(O)cc1
# Assay: cells, lysate or membranes named
# Settings: other: PNPH; CI 95% confidence interval; pH 7.4; 37.0 °C
# Protocol: Briefly, liver samples were homogenised in 10 mM Tris-HCl, 250 mM sucrose (pH7.4) and centrifuged for 10 minutes at 10.000×g. Afterwards, CaCl2 to a final concentration of 8 mM was added to the supernatant, and the samples were centrifuged at 25.000×g for 30 minutes. The protein concentrations of the microsomal fraction (pellet) were determined with a commercially available kit (Bio-Rad laboratories) according to the manufacturer's instructions and bovine serum albumin was used as standard. The prepared microsomes were diluted to a final protein concentration of 4 mg/ml and stored at –80°C before analysis. All procedures were done on ice.
# Briefly, microsomes were incubated together with the appropriate type of substrate and NADPH at 37°C. The resulting production of resorufin or p-nitrochetecol was measured by HPLC. For studying inhibition, steroids were additionally added to the microsomes. Inhibition studies were performed using a pool of microsomes from three male pigs. […] All steroids were dissolved in methanol. The final concentration of methanol was below 0.1% in the reaction volumes. The same amount of methanol was added to the blank incubations. For the kinetic studies, the activities were determined with substrate concentrations ranging from 0.1 to 4.0µM for EROD and MROD, and from 0.01 to 2mM for PNPH. Kinetic studies were performed under linear conditions. […]
protein,measurement,value
B1,Km,0.33 (0.214–0.452) µM
